One may read the Kd as the concentration at which binding is half-saturated. High values mean weaker binding, low ones tighter binding.

The test addresses human IgE (human) (UniProt P01854). Briefly: Biacore, human IgE on CM5 chip, sample protein in flow. (In SPR one partner is held on a chip, and binding of the other changes the refractive index at the surface.)

Sequence of human IgE (human) (P01854 other isoform, or with tags, fused parts or gaps): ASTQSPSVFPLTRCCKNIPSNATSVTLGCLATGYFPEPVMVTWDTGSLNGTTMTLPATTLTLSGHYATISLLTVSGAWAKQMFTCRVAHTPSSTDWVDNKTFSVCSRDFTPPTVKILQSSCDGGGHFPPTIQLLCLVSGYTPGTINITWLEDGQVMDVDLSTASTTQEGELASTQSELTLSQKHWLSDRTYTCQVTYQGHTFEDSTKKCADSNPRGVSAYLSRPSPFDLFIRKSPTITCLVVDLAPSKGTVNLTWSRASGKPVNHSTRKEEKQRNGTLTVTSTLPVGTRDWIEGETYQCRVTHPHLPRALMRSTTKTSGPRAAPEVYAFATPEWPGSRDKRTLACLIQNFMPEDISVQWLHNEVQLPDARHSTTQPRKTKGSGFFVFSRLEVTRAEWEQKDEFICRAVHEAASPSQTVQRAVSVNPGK

Substance “recombinant human FcERI protein (from UniProt P12319 26-205) (receptor)” returned a dissociation constant Kd of 450 nM.

For the origin of these results see patent publication US20100216663A1.
